Data as given in paper PMC5314767.

Key:
[1] = target: T1, TFAM (human, UniProt Q00059 43-245); test: fluorescence anisotropy
T1 sequence: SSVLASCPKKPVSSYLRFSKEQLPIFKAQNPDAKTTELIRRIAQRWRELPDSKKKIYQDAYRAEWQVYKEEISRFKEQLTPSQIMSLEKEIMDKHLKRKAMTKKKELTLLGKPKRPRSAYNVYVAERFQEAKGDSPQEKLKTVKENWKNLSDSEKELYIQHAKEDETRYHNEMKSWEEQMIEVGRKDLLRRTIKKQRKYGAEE

[2] = target: POLRMT;TFAM (human;human, UniProt O00411;Q00059 43-1230;43-245, |); test: fluorescence anisotropy
[3] = target: POLRMT;TFAM;TFB2M (human;human;human, UniProt O00411;Q00059;Q9H5Q4 43-1230;43-245;21-396, ||); test: fluorescence anisotropy
Sequence of POLRMT;TFAM;TFB2M (O00411 43-1230, chain 1 of 2): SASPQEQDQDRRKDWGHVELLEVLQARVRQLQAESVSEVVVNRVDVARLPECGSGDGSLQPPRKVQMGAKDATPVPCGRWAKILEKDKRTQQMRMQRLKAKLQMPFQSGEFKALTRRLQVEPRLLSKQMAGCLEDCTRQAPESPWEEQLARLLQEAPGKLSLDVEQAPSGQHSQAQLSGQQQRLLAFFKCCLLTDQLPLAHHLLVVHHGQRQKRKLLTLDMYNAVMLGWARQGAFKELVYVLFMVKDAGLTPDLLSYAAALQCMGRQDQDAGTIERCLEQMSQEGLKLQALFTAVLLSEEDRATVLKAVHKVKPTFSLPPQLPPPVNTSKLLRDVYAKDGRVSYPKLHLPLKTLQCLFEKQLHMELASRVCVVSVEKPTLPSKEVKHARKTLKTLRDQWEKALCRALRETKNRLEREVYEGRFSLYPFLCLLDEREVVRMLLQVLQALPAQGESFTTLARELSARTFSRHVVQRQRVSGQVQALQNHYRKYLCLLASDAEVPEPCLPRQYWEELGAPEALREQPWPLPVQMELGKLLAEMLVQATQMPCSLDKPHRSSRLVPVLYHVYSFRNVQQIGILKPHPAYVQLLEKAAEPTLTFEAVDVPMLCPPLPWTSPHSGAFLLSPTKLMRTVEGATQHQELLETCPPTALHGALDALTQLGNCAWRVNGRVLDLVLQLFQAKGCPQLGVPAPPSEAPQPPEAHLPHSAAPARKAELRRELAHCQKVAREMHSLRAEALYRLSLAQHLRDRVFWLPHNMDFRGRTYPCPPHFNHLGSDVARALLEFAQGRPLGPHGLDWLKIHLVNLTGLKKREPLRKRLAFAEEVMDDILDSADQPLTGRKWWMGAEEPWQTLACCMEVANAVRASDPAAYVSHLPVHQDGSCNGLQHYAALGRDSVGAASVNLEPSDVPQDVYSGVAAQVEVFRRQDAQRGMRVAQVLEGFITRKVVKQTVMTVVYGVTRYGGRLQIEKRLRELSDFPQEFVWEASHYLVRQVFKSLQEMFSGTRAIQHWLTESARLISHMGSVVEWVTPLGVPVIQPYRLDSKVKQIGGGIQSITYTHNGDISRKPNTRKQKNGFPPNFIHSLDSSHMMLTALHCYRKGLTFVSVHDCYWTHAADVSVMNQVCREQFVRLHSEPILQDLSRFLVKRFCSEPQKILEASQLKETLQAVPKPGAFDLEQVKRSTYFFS
Sequence of POLRMT;TFAM;TFB2M (Q9H5Q4 21-396, chain 3 of 2): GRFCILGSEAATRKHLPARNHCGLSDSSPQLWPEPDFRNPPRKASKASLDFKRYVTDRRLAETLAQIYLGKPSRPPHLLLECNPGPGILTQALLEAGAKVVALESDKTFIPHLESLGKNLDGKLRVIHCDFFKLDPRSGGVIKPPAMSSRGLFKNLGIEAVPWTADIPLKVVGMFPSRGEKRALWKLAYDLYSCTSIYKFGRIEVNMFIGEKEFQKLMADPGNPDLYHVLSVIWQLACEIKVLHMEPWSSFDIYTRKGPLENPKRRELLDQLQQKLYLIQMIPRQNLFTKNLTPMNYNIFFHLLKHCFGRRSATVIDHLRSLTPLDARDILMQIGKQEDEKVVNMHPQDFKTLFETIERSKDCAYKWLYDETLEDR

[4] = target: T1, TFAM; test: EMSA
[5] = target: POLRMT;TFB2M (human;human, UniProt O00411;Q9H5Q4 43-1230;21-396, |); test: fluorescence anisotropy
Sequence of POLRMT;TFB2M (O00411 43-1230, chain 1 of 2): as the sequence (O00411 43-1230, chain 1 of 2) above
Sequence of POLRMT;TFB2M (Q9H5Q4 21-396, chain 2 of 2): as the sequence (Q9H5Q4 21-396, chain 3 of 2) above

[6] = target: POLRMT (human, UniProt O00411 43-1230); test: fluorescence anisotropy
Sequence of POLRMT (O00411 43-1230): as the sequence (O00411 43-1230, chain 1 of 2) above

Sequence of POLRMT;TFAM (O00411 43-1230, one chain of several): as the sequence (O00411 43-1230, chain 1 of 2) above

Binder | Kd [1] [nM] | Kd [2] [nM] | Kd [3] [nM] | binding result [4] | Kd [5] [nM] | Kd [6] [nM]
LSP -41 to +10 (dsDNA) DNA 1: TGTGTTAGTTGGGGGGTGACTGTTAAAAGTGCATACCGCCAAAAGATAAAA DNA 2: TTTTATCTTTTGGCGGTATGCACTTTTAACAGTCACCCCCCAACTAACACA | 7 | 3 | 4 |  |  | 
LSP -41 to -12 upstream fragment (dsDNA) DNA 1: TGTGTTAGTTGGGGGGTGACTGTTAAAAGT DNA 2: ACTTTTAACAGTCACCCCCCAACTAACACA |  |  |  | binds | 5 | 8
